{"source": "paper PMC5245964", "experiment_in_all_cases": "AUC; sedimentation velocity, 42,000 rpm, 20°C, 0.3–0.5 mg/mL in buffer HST300, continuous c(s) distribution (SEDFIT)", "key": {"[1]": {"biological_target": "Mis18β (insect-cell-expressed, untagged) (human) (UniProt O43482)", "sequence (O43482 whole entry)": "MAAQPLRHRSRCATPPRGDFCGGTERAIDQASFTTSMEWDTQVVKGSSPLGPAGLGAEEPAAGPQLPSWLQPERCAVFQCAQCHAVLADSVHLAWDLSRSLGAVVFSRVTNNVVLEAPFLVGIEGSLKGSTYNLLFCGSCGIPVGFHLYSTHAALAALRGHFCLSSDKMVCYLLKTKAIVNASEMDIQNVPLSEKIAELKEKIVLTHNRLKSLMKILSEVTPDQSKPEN"}, "[2]": {"biological_target": "6His-Mis18β (insect-cell-expressed) (human) (UniProt O43482)", "sequence (O43482 whole entry)": "as above"}, "[3]": {"biological_target": "MBP-Mis18β (insect-cell-expressed) (human) (UniProt O43482)", "sequence (O43482 whole entry)": "as above"}, "[4]": {"biological_target": "Mis18α:Mis18β complex (insect-cell-expressed) (human) (UniProt Q9NYP9)", "sequence (Q9NYP9 whole entry, chain 1 of 2)": "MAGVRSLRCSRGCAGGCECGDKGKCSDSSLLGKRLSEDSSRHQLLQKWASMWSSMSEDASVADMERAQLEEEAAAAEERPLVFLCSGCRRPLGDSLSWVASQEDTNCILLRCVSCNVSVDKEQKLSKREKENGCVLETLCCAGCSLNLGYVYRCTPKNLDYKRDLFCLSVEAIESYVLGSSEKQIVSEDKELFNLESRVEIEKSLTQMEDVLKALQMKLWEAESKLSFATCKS", "sequence (O43482 whole entry, chain 2 of 2, further chain)": "as the sequence (O43482 whole entry) above", "settings": "scale: M18BP1^1–140-MBP per Mis18α:Mis18β hexamer"}}}
{"substance": "Mis18α (insect-cell-expressed, 6His cleaved) (from UniProt Q9NYP9 1-233) (natural protein)", "values": [{"measurement": "stoichiometry N (Mis18α per Mis18β (4:2 hexamer))", "setting": "[1]", "result": 2}]}
{"substance": "MBP-Mis18α (insect-cell-expressed) (from UniProt Q9NYP9 1-233) (natural protein)", "values": [{"measurement": "stoichiometry N (MBP-Mis18α per complex)", "setting": "[2]", "result": 4}]}
{"substance": "6His-Mis18α (insect-cell-expressed) (from UniProt Q9NYP9 1-233) (natural protein)", "values": [{"measurement": "stoichiometry N (MBP-Mis18β per complex)", "setting": "[3]", "result": 2}]}
{"substance": "M18BP1^1–140-MBP (from UniProt Q6P0N0 1-140) (domain or fragment)", "values": [{"measurement": "stoichiometry N", "setting": "[4]", "result": 2}]}
